B2: GALACTURONOSYLTRANSFERASE7 (GAUT7) fused to hRluc fragment [F1] or [F2] (natural protein, Arabidopsis thaliana, UniProt Q9ZVI7 1-619, looked up)
chain: MKGGGGGGGGGGGGKRRWKVLVIGVLVLVILSMLVPLAFLLGLHNGFHSPGFVTVQPASSFESFTRINATKHTQRDVSERVDEVLQKINPVLPKKSDINVGSRDVNATSGTDSKKRGLPVSPTVVANPSPANKTKSEASYTGVQRKIVSGDETWRTCEVKYGSYCLWREENKEPMKDAKVKQMKDQLFVARAYYPSIAKMPSQSKLTRDMKQNIQEFERILSESSQDADLPPQVDKKLQKMEAVIAKAKSFPVDCNNVDKKLRQILDLTEDEASFHMKQSVFLYQLAVQTMPKSLHCLSMRLTVEHFKSDSLEDPISEKFSDPSLLHFVIISDNILASSVVINSTVVHARDSKNFVFHVLTDEQNYFAMKQWFIRNPCKQSTVQVLNIEKLELDDSDMKLSLSAEFRVSFPSGDLLASQQNRTHYLSLFSQSHYLLPKLFDKLEKVVILDDDVVVQRDLSPLWDLDMEGKVNGAVKSCTVRLGQLRSLKRGNFDTNACLWMSGLNVVDLARWRALGVSETYQKYYKEMSSGDESSEAIALQASLLTFQDQVYALDDKWALSGLGYDYYINAQAIKNAAILHYNGNMKPWLELGIPNYKNYWRRHLSREDRFLSDCNVNP
notes: Made in two forms, one with [F1]-HA and one with [F2]-FLAG; a chain carries one of the two; also called GAUT7-[F1]; GAUT7-[F2]; source: N. benthamiana leaves, transient expression (A. tumefaciens GV3101, with p19), in crude leaf macerate; not shown: hRluc[F1]; (Renilla luciferase residues 1-110) with HA, C-terminal, kept; hRluc[F2]; (Renilla luciferase residues 111-310) with FLAG, C-terminal, kept
B3: GALACTURONOSYLTRANSFERASE1 (GAUT1) fused to hRluc fragment [F1] or [F2] (natural protein, Arabidopsis thaliana, UniProt Q9LE59 1-673, looked up)
chain: MALKRGLSGVNRIRGSGGGSRSVLVLLIFFCVFAPLCFFVGRGVYIDSSNDYSIVSVKQNLDWRERLAMQSVRSLFSKEILDVIATSTADLGPLSLDSFKKNNLSASWRGTGVDPSFRHSENPATPDVKSNNLNEKRDSISKDSIHQKVETPTKIHRRQLREKRREMRANELVQHNDDTILKLENAAIERSKSVDSAVLGKYSIWRRENENDNSDSNIRLMRDQVIMARVYSGIAKLKNKNDLLQELQARLKDSQRVLGEATSDADLPRSAHEKLRAMGQVLAKAKMQLYDCKLVTGKLRAMLQTADEQVRSLKKQSTFLAQLAAKTIPNPIHCLSMRLTIDYYLLSPEKRKFPRSENLENPNLYHYALFSDNVLAASVVVNSTIMNAKDPSKHVFHLVTDKLNFGAMNMWFLLNPPGKATIHVENVDEFKWLNSSYCPVLRQLESAAMREYYFKADHPTSGSSNLKYRNPKYLSMLNHLRFYLPEVYPKLNKILFLDDDIIVQKDLTPLWEVNLNGKVNGAVETCGESFHRFDKYLNFSNPHIARNFNPNACGWAYGMNMFDLKEWKKRDITGIYHKWQNMNENRTLWKLGTLPPGLITFYGLTHPLNKAWHVLGLGYNPSIDKKDIENAAVVHYNGNMKPWLELAMSKYRPYWTKYIKFDHPYLRRCNLHE
notes: Made in two forms, one with [F1]-HA and one with [F2]-FLAG; a chain carries one of the two; also called GAUT1-[F1]; GAUT1-[F2]; source: N. benthamiana leaves, transient expression (A. tumefaciens GV3101, with p19), in crude leaf macerate; not shown: hRluc[F1]; (Renilla luciferase residues 1-110) with HA, C-terminal, kept; hRluc[F2]; (Renilla luciferase residues 111-310) with FLAG, C-terminal, kept

How the values were obtained:
Experiment in all cases: split reporter (BiFC, NanoBiT); Rluc-PCA: proteins with C-terminal hRluc[F1]-HA and hRluc[F2]-FLAG co-expressed with p19 in N. benthamiana leaves for 72 h (Agrobacterium OD600 0.2 each, p19 0.05); pooled leaf discs macerated in 0.5 M NaCl, 0.1 M potassium phosphate pH 7.4, 1 mM EDTA, 0.02% BSA, protease inhibitors; 10 uM coelenterazine-h, luminescence 30 s; compared with p19 alone
[1] = target: FUCO…1 (FUT1) fused to hRluc fragment [F1] or [F2] (Arabidopsis thaliana) (UniProt Q9SWH5)
FUCO…1 (FUT1) fused to hRluc fragment [F1] or [F2] (Arabidopsis thaliana), sequence (Q9SWH5 whole entry, the tested form may be a part): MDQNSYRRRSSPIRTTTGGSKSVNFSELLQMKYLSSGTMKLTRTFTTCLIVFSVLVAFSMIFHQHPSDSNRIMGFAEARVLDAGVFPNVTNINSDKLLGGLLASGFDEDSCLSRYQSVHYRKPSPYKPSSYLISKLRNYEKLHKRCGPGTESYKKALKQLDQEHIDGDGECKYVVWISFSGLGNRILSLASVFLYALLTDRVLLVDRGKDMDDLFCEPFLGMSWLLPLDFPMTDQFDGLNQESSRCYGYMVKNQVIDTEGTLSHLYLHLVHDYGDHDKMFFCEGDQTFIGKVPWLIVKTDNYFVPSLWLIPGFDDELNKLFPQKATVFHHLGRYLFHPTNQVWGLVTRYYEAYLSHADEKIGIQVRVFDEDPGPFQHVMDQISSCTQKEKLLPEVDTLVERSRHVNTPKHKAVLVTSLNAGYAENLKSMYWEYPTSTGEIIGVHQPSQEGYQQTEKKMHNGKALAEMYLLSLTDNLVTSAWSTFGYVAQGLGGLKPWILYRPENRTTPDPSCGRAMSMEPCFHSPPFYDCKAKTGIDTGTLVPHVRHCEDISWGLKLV

[2] = target: the molecule itself
[3] = target: B3; conditions: partners not purified
[4] = target: B2; conditions: partners not purified

Question: How did the Log10(RLU) [1] turn out when “XXT5 fused to hRluc fragment [F1] or [F2] (from UniProt Q9CA75 1-457) (natural protein)” was run?
Answer: 3.76 Log10(RLU)

B1: ARABINAN DEFICIENT1 (ARAD1) fused to hRluc fragment [F1] or [F2] (natural protein, Arabidopsis thaliana, UniProt Q6DBG8 1-447, looked up)
chain: MARKSSLLKRAAIAVVSVIAIYVILNASVSRSLPSSSDLPRQLIREDDDDEGRAPIQPRVRVYMYNLPKRFTYGLIEQHSIARGGIKKPVGDVTTLKYPGHQHMHEWYLFSDLNQPEVDRSGSPIVRVSDPADADLFYVPVFSSLSLIVNAGRPVEAGSGYSDEKMQEGLVEWLEGQEWWRRNAGRDHVIPAGDPNALYRILDRVKNAVLLVSDFGRLRPDQGSFVKDVVIPYSHRVNLFNGEIGVEDRNTLLFFMGNRYRKDGGKVRDLLFQVLEKEDDVTIKHGTQSRENRRAATKGMHTSKFCLNPAGDTPSACRLFDSIVSLCVPLIVSDSIELPFEDVIDYRKFSIFVEANAALQPGFLVQMLRKIKTKKILEYQREMKSVRRYFDYDNPNGAVKEIWRQVSHKLPLIKLMSNRDRRLVLRNLTEPNCSCLCTNQTGLITSI
notes: Made in two forms, one with [F1]-HA and one with [F2]-FLAG; a chain carries one of the two; also called ARAD1-[F1]; ARAD1-[F2]; source: N. benthamiana leaves, transient expression (A. tumefaciens GV3101, with p19), in crude leaf macerate; not shown: hRluc[F1]; (Renilla luciferase residues 1-110) with HA, C-terminal, kept; hRluc[F2]; (Renilla luciferase residues 111-310) with FLAG, C-terminal, kept
Question: B1 was tested. Which “Log10(RLU)” value [2] did it give?
Answer: 4.75 Log10(RLU)

Question: For B2, which “Log10(RLU)” value [3] is on record?
Answer: 4.71 Log10(RLU)

Question: Which “Log10(RLU)” value [4] does the source give for B3 here?
Answer: 4.71 Log10(RLU)

B4: MURUS3/KATAMARI1 (MUR3) fused to hRluc fragment [F1] or [F2] (natural protein, Arabidopsis thaliana, UniProt Q7XJ98 1-619, looked up)
chain: MFPRVSMRRRSAEVSPTEPMEKGNGKNQTNRICLLVALSLFFWALLLYFHFVVLGTSNIDKQLQLQPSYAQSQPSSVSLRVDKFPIEPHAAPSKPPPKEPLVTIDKPILPPAPVANSSSTFKPPRIVESGKKQEFSFIRALKTVDNKSDPCGGKYIYVHNLPSKFNEDMLRDCKKLSLWTNMCKFTTNAGLGPPLENVEGVFSDEGWYATNQFAVDVIFSNRMKQYKCLTNDSSLAAAIFVPFYAGFDIARYLWGYNISRRDAASLELVDWLMKRPEWDIMRGKDHFLVAGRITWDFRRLSEEETDWGNKLLFLPAAKNMSMLVVESSPWNANDFGIPYPTYFHPAKDSEVFEWQDRMRNLERKWLFSFAGAPRPDNPKSIRGQIIDQCRNSNVGKLLECDFGESKCHAPSSIMQMFQSSLFCLQPQGDSYTRRSAFDSMLAGCIPVFFHPGSAYTQYTWHLPKNYTTYSVFIPEDDVRKRNISIEERLLQIPAKQVKIMRENVINLIPRLIYADPRSELETQKDAFDVSVQAVIDKVTRLRKNMIEGRTEYDYFVEENSWKYALLEEGQREAGGHVWDPFFSKPKPGEDGSSDGNGGTTISADAAKNSWKSEQRDKTQ
notes: Made in two forms, one with [F1]-HA and one with [F2]-FLAG; a chain carries one of the two; also called MUR3-[F1]; MUR3-[F2]; source: N. benthamiana leaves, transient expression (A. tumefaciens GV3101, with p19), in crude leaf macerate; not shown: hRluc[F1]; (Renilla luciferase residues 1-110) with HA, C-terminal, kept; hRluc[F2]; (Renilla luciferase residues 111-310) with FLAG, C-terminal, kept
Question: Which “Log10(RLU)” value [2] does the source give for B4 here?
Answer: 4.75 Log10(RLU)

Source: PMC4265154, “A reversible Renilla luciferase protein complementation assay for rapid identification of protein–protein interactions reveals the existence of an interaction network involved in xyloglucan biosynthesis in the plant Golgi apparatus” (Journal of Experimental Botany, 2014)
